In patent publication US20190125929A1:

Legend:
[1] = biological target: decellularized extracellular matrix derived from TSP2 KO mouse dermal fibroblasts (mouse); assay: AFM adhesion force, vWF-conjugated 2 µm bead on decellularized ECM (n=5)
[2] = biological target: decellularized extracellular matrix derived from wild-type (WT) mouse dermal fibroblasts (mouse); assay: as above

Substance “Recombinant von Willebrand Factor (vWF) (Millipore), conjugated via EDC/NHS chemistry to a 2 µm carboxylated polystyrene bead on an AFM cantilever” has an adhesion force [1] of 16.5 pN and an adhesion force [2] of 53.8 pN.
